US20210380679A1 (INHIBRX BIOSCIENCES, published 2021)
Substitutions are numbered along the chain they refer to.

T1: human DLL3 (Delta-like ligand 3) (human, UniProt Q9NYJ7 27-618)
T1 construct: endogenous on SHP-77 cells; also called cell-surface DLL3
T1 sequence: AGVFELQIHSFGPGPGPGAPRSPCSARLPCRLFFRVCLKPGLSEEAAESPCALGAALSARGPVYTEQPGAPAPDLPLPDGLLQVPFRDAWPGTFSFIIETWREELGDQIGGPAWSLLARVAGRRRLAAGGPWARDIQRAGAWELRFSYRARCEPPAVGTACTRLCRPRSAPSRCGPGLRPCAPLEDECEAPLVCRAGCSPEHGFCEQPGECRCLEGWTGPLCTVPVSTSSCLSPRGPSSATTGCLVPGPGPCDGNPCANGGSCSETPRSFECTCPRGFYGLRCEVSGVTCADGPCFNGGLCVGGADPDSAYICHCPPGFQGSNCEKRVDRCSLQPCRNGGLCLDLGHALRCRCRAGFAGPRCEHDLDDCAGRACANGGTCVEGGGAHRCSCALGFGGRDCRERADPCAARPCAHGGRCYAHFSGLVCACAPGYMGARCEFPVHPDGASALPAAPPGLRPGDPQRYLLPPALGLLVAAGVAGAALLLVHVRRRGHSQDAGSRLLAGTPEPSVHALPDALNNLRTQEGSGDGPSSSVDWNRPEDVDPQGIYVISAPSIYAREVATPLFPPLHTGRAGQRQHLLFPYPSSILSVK

B1: hz10D9v8 (Fc fusion)
VHH: EVQLVESGGGEVQPGGSLRLSCAASGFTFSINAMGWYRQAPGKQRELVAGFTGDTNTIYAESVKGRFTISRDNAKNTVYLQMSSLRAEDTAVYYCAADVQLFSRDYEFYWGQGTLVTVKP
notes: tested as VHH-human Fc; Fc not specified
B2: hz10D9v9 (Fc fusion)
VHH: B1 VHH with I31S, N32Y
notes: as for B1
B3: hz10D9v10 (Fc fusion)
VHH: B1 VHH with F27S, T28I, I31S
notes: as for B1
B4: hz10D9v11 (Fc fusion)
VHH: B1 VHH with T28I, I31S, N32Y
notes: as for B1
B5: hz10D9v12 (Fc fusion)
VHH: B1 VHH with F27S, T28I, N32Y
notes: as for B1
B6: hz10D9v13 (Fc fusion)
VHH: B1 VHH with T28I
notes: as for B1
B7: hz6C5v6 (Fc fusion)
VHH: EVQLVESGGGEVQPGGSLRLSCAASEITFSDKTVGWYRQAPGKQRVLVAVISNVDATNYAESVKGRFTISRDNAKNTVYLQMSSLRAEDTAVYYCHARDFENEYWGQGTLVTVKP
notes: as for B1
B8: hz8E7v12 (Fc fusion)
VHH: EVQLVESGGGEVQPGGSLRLSCGPSEIITSDKSVGWWRQAPGKGRELVAGISNVGSTNYAQSVKGRFTISRDNAKNTLYLQMSSLRAEDTAVYYCYARDFENEYWGQGTLVTVKP
notes: as for B1
B9: hz8E7v13 (Fc fusion)
VHH: B8 VHH with V34M, G44Q, E46N, L78V
notes: as for B1
B10: hz8E7v14 (Fc fusion)
VHH: B8 VHH with W37V, G44Q, E46N, L78V
notes: as for B1
B11: hz8E7v15 (Fc fusion)
VHH: B8 VHH with V34M, W37V, G44Q, E46N
notes: as for B1
B12: hz8E7v16 (Fc fusion)
VHH: B8 VHH with V34M, W37V, G44Q, E46N, L78V
notes: as for B1
B13: hz5A8v10 (Fc fusion)
VHH: EVQLVESGGGEVQPGGSLRLSCAASGSIFSINAMGWYRQAPGKQRELVAVVSSDARTTVAPSVKGRFTISRDNAKNTVYLQMSSLRAEDTAVYYCGVREWYSDADWRDYEGQGTLVTVKP
notes: as for B1
B14: hz5A8v11 (Fc fusion)
VHH: B13 VHH with L47W, A55G, A104S
notes: as for B1
B15: hz5A8v12 (Fc fusion)
VHH: B13 VHH with P14A, A55G, A104S
notes: as for B1
B16: hz8E7v3 (Fc fusion)
VHH: B8 VHH with G44Q, E46N
notes: as for B1
B17: hz8E7v4 (Fc fusion)
VHH: B8 VHH with G23A, P24A, G44Q, E46N, Y79F
notes: as for B1
B18: L6C5 (Fc fusion)
VHH: QVQLQESGGGLVQTGGSLTLSCGASEITFSDKTVGWYRQAPGKQRVLVAVISNVDSTNYAHSVKGRFTISRDNAKNTVYLQMNSLKPEDTAVYYCHARDFENEYWGRGTQVTVKP
notes: as for B1
B19: hz5A8v2 (Fc fusion)
VHH: B13 VHH with A55G, A104S
notes: as for B1
B20: hz5A8v1 (Fc fusion)
VHH: B13 VHH with A55G, P61E, A104S
notes: as for B1
B21: hz5A8v3 (Fc fusion)
VHH: B13 VHH with A40V, P41L, A55G, A104S
notes: as for B1
B22: hz5A8v4 (Fc fusion)
VHH: B13 VHH with A55G, Y79S, A104S
notes: as for B1
B23: hz5A8v6 (Fc fusion)
VHH: B13 VHH with D54E, A55G, A104S
notes: as for B1
B24: hz5A8v7 (Fc fusion)
VHH: B13 VHH with A104S
notes: as for B1
B25: hz5A8v8 (Fc fusion)
VHH: B13 VHH with A55G
notes: as for B1
B26: hz5A8v9 (Fc fusion)
VHH: B13 VHH with A55G, D103E, A104S
notes: as for B1
B27: hz10E5v1 (Fc fusion)
VHH: EVQLVESGGGEVQPGGSLRLSCAASGFTLDDYTIGWFRQAPGKEREGVSCISSSGGSTYYAESVKGRFTISRDNAKNTLYLQMSSLRAEDTAVYYCATYCPVVVGPELGYDYWGQGTLVTVKP
notes: as for B1
B28: L10E5 (Fc fusion)
VHH: EVQLVQSGGGLVQPGGSLRLSCAASGFTLDDYTIGWFRQFPGKEREGVSCISSSGGSTYYADSVKGRFTISRDNAKNTVWLQMNDLKSEDTAIYYCATYCPVVVGPELGYDYWGQGTQVTVKP
notes: as for B1
B29: hz10E5v2 (Fc fusion)
VHH: B27 VHH with L79V, Y80W
notes: as for B1
B30: hz10E5v3 (Fc fusion)
VHH: B27 VHH with S84N, S85D
notes: as for B1
B31: hz10E5v4 (Fc fusion)
VHH: B27 VHH with R87K, A88S, V93I
notes: as for B1
B32: hz10E5v5 (Fc fusion)
VHH: B27 VHH with A40F
notes: as for B1
B33: hz8E7v8 (Fc fusion)
VHH: B8 VHH with W37Y, G44Q, E46N
notes: as for B1
B34: hz8E7v5 (Fc fusion)
VHH: B8 VHH with G44Q, E46N, L78V
notes: as for B1
B35: hz8E7v6 (Fc fusion)
VHH: B8 VHH with T29F, G44Q, E46N
notes: as for B1
B36: hz8E7v9 (Fc fusion)
VHH: B8 VHH with W37V, G44Q, E46N
notes: as for B1
B37: hz8E7v10 (Fc fusion)
VHH: B8 VHH with G44Q
notes: as for B1
B38: hz8E7v11 (Fc fusion)
VHH: B8 VHH with W37F, G44Q, E46N
notes: as for B1
B39: hz5A8v5 (Fc fusion)
VHH: B13 VHH with A55G, A91G, A104S
notes: as for B1
B40: L5A8 (Fc fusion)
VHH: QVQLVQSGGGLVQAGESLRLSCAASGSIFSINAMGWYRQVLGKQRELVAVVSSDGRTTVAPSVKGRFTISRDNAKNTVSLQMNSLKPEDTGVYYCGVREWYSDSDWRDYEGQGTQVTVKP
notes: as for B1

target: T1, human DLL3 (Delta-like ligand 3); test: flow cytometry, SHP-77 cells

Binder	binding result
B1	binds
B2	binds
B3	binds
B4	binds
B5	binds
B6	binds
B7	binds
B8	binds
B9	binds
B10	binds
B11	binds
B12	binds
B13	binds
B14	binds
B15	binds

target: T1, human DLL3 (Delta-like ligand 3); test: flow cytometry, sdAb-Fc titrated on SHP-77 cells (DLL3 positive), APC anti-human Fc secondary
Experimental: (§1) FIGS. 2A-L set forth a series of graphs depicting the ability of sdAb and humanized variants thereof targeting DLL3 to bind cell surface DLL3.
(§2) Specificity and relative affinity were assessed for purified sdAb-Fcs on DLL3-expressing cells. […] A titration series of the fusion protein was incubated with the DLL3-expressing cell lines (approximately 2.5×10⁴ to 5×10⁴ cells/well) for 30 minutes at 4 degrees Celsius in FACS Buffer (PBS 1% BSA, 0.1% NaN₃ pH 7.4) in 96-well plates. Following three wash steps in FACS buffer, an APC-conjugated anti-human Fcγ specific secondary antibody (Jackson ImmunoResearch) was added and incubated for 30 minutes at 4 degrees Celsius. Following three additional wash steps in FACS buffer bound antibody was detected via flow cytometry (IQue Intellicyte).

Binder	binding result	EC50 (read off the curve) [nM]
B16	binds	
B17	binds	
B18	binds	
B19	binds	
B20		~2
B21	binds	
B22	binds	
B23	binds	
B24	binds	
B25	binds	
B26	binds	
B27		~5
B28		~3
B29		~7
B30		~7
B31		~10
B32		~7

target: T1, human DLL3 (Delta-like ligand 3); test: flow cytometry, sdAb-Fc titrated on 293FS cells transfected with DLL3 (panel title DLL3-FL), APC anti-human Fc secondary
Experimental: as §1, §2

Binder	binding result	EC50 (read off the curve) [nM]
B33	binds	
B34	binds	
B35	binds	
B36	binds	
B37	binds	
B38	binds	
B39		~3
B40		~10
